The text below walks through data of IntAct's records for PubMed 21784248.

Sequences and labels used below:
B1: Nucleoporin NIC96 (Chaetomium thermophilum (strain DSM 1495 / CBS 144.50 / IMI 039719)), G0S024 (parent)
chain: MSLIGNGPSVPPSSTKASLFSSPTTSANPTGGLFGSTTGGSSLFAPKTAGSTTTSTTQPTSTTGLGTSLFGTSTTANTQNTANAARPSLFTAGNSIFGTSTTQPGLGASSLTTAATSNQQAQQQQQQRQQHQQAAPTGALFDSLLARNKKQAEGETALGELPSLQLGLADLRQRLRKLGPSSDRPIEPGKAHYFLAASGVDPGAAVRDLGALGLQAKTERTAASVGPAAGPSGVSTTGFGTGLGEVDVDTYLSNLQTKTTLSMIADGLERSARDFDAFLEENVTLEWEAQRKRIYQHFGIKPRDSSVAGTTTAQPTATPSKDGQGTFGRSRRKASQPPPGERPAQRMSILGRSTMMRSVIGTPTRIGAHAPEFSDVEARKDSSGAAVASVDDRFLREKQAKLAEKIREFNDARQRGTPFYICRDLADLESKSGDRHGPHIVEAYRAVMEMVGEHPDAGEAPRERQFAKMYLDPNTQSANALAMRKQILKGATTFLEKQFWNEVNSLIAKYPQDANLGGLPDVVSKIKAYIRLRIARKTLVPDNVELQQINGEYVWAIVFYLLRAGFVTEAAQYVNSNQAHFRAIDRTFSGYINSYASSEERRLKRQMQDRCMSEYNQRIRNAPEGSIDPFRMACYKIIGRCDLSNRSLDGLQTDVNDWIWLQFNLARETDRSLELAGESYGLAELQASIREIGLKHFPKTAAEDTNGSFGMFFYLQILAGMFEQAIAYLYPFSYVDAVHFAIALTYYGLLRPVDAASAGNELLSHNTRSMPQINFGRMLGYYTRDFRAANPAAAVDYLVLICLNADEAAGGQQAQAALCHEALRELVLESREFSRLIGDIRPDGRRIRGVIEERGPLIALGQEDDFIRTITLQAASFADDNGRTTDAVLLYHLAEDYDTVVSIVSRALSEAISLEIGEDPMRLIPVKPRVTNAEGQVEEAAPGSSLSLAAIDDPVELAKAMMGMYERDHMFWQKIREPNRVACSVLLQMADIKSLVEQGRWAECLDKIRALDILPLTARGDPGTIRSYAARFPSLAQPVAINVPNLLMWTVLCCMRQRERLAGGQFAGNESTARLMMDELKQMTVDLMAYTSQLRYRLPPHLHEALARASAD

Variants of B1 are the subject of the assay. The following applies: with nu192_chatd NUP192, G0S4T0.
nu192_chatd NUP192, G0S4T0, sequence (G0S4T0 whole entry): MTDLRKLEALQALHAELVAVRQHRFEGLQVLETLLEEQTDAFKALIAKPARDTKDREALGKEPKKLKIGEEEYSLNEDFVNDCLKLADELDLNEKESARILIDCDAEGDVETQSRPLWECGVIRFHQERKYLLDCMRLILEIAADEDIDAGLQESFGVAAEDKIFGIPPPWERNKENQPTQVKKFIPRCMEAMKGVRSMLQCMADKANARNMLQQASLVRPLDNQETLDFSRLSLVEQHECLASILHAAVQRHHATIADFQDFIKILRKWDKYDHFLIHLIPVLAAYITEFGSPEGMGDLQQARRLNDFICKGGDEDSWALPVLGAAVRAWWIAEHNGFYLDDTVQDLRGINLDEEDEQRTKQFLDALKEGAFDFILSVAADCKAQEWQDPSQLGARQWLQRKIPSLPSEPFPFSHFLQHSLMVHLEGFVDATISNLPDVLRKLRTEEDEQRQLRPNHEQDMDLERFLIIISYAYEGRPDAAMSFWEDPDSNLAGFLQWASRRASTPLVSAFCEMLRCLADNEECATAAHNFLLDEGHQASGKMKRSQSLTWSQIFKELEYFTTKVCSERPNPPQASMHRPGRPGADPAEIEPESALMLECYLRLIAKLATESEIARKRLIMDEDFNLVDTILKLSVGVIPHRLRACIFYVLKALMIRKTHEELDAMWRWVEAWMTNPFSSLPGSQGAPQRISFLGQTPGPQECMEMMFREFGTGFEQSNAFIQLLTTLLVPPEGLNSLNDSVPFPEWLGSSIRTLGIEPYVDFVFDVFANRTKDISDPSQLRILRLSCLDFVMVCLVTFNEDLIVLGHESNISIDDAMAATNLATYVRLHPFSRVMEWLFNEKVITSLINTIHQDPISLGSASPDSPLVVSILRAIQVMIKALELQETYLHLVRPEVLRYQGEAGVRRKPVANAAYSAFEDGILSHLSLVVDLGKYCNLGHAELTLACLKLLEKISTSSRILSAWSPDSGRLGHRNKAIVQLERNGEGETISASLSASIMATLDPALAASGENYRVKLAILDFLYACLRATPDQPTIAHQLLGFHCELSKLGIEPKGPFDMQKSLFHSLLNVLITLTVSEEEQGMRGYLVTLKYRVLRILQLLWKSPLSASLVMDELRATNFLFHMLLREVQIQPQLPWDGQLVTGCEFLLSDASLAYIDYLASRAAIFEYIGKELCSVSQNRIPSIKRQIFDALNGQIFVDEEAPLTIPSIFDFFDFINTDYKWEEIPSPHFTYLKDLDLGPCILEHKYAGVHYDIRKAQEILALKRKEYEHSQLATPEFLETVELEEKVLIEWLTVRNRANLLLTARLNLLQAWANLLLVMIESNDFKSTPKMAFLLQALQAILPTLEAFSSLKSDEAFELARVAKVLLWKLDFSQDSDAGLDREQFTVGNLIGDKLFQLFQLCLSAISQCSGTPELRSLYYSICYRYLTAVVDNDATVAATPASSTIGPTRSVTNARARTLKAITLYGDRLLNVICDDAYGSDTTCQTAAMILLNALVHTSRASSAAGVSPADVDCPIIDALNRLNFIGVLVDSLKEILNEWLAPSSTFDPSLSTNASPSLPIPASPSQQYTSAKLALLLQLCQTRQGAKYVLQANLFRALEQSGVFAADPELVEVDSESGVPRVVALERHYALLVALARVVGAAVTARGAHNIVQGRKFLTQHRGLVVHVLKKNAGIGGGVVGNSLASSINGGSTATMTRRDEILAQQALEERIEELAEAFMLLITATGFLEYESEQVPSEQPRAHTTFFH
Turning to Y251A;I264A;F275A;W287A, the “effect of a mutation on the interaction” value was “decreasing interaction”.
